The values that follow come from patent US20200407445A1 (ITEOS THERAPEUTICS, published 2020).

In assay [1] the target is T1, human TIGIT expressed on cells (human, UniProt Q495A1 22-244).
T1 sequence (looked up): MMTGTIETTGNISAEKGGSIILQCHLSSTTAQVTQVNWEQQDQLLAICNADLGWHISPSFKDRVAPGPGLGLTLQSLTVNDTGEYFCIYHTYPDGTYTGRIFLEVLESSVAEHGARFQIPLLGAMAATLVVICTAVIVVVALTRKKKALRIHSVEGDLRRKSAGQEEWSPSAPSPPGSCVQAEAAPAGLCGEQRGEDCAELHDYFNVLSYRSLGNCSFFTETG
As to the kind of experiment: cell-based or functional assay.

The next assay concerns the target T2, Human TIGIT-Fc (human, UniProt Q495A1 22-141).
T2 construct: bought (Creative Biomart); also called TIGIT-Fc antigen; TIGIT-Fc fusion antigen; not shown: Fc part
T2 sequence (looked up): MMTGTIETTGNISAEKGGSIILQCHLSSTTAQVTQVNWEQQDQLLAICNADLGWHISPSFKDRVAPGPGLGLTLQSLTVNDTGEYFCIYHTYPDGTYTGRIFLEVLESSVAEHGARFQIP
As to the kind of experiment: ForteBio BLI, IgG KD, avid. On the procedure: Briefly, ForteBio affinity measurements were performed by loading IgGs on-line onto AHQ sensors. Sensors were equilibrated off-line in assay buffer for 30 min and then monitored on-line for 60 seconds for baseline establishment. Sensors with loaded IgGs were exposed to 100 nM antigen (human TIGIT-Fc, human TIGIT-His or cyno TIGIT-Fc) for 5 minutes, afterwards they were transferred to assay buffer for 5 min for off-rate measurement. Kinetics were analyzed using the 1:1 binding model.

Assay [2] addresses T3, Human TIGIT-His (human, UniProt Q495A1 22-141, biotinylated in the ForteBio Fab assay).
T3 construct: bought (Creative Biomart); also called Biotinylated Human TIGIT HIS; TIGIT-His monomer; not shown: His tag
T3 sequence (looked up): T2 sequence (looked up)
As to the kind of experiment: MSD-SET, monovalent (Fab or mAb titrated, not said which). The procedure:
(§1) Briefly, solution equilibrium titrations (SET) were performed in PBS+0.1% IgG-Free BSA (PBSF) with antigen (TIGIT-His monomer) held constant at 10-100 pM and incubated with 3- to 5-fold serial dilutions of Fab or mAbs starting at 10 pM-10 nM. Antibodies (20 nM in PBS) were coated onto standard bind MSD-ECL plates overnight at 4° C. or at room temperature for 30 min. Plates were then blocked by BSA for 30 min with shaking at 700 rpm, followed by three washes with wash buffer (PBSF+0.05% Tween 20). SET samples were applied and incubated on the plates for 150s with shaking at 700 rpm followed by one wash. Antigen captured on a plate was detected with 250 ng/mL sulfotag-labeled streptavidin in PBSF by incubation on the plate for 3 min. The plates were washed three times with wash buffer and then read on the MSD Sector Imager 2400 instrument using 1× Read Buffer T with surfactant. The percent free antigen was plotted as a function of titrated antibody in Prism and fit to a quadratic equation to extract the KD. To improve throughput, liquid handling robots were used throughout MSD-SET experiments, including SET sample preparation.

In assay [3] the target is T1, human TIGIT expressed on cells. As to the kind of experiment: flow cytometry, 100 nM Ab, Jurkat-hTIGIT vs untransfected. The procedure: (§2) Antibodies were incubated with the cells for 20 min at 4° C. in FACS buffer. […] Geometric mean fluorecence intensity was analysed using LSR BD Fortessa. Cell binding was recorded as the median florescence intensity of PE on the transfected line compared to the un-transfected line for each antibody (Table 3).

For assay [4], the target named is T4, mouse TIGIT expressed on cells (mouse, UniProt P86176 29-249).
T4 construct: whole, on cells; on Jurkat cells engineered to express mouse TIGIT; also called mTIGIT; Jurkat-mTIGIT
T4 sequence (looked up): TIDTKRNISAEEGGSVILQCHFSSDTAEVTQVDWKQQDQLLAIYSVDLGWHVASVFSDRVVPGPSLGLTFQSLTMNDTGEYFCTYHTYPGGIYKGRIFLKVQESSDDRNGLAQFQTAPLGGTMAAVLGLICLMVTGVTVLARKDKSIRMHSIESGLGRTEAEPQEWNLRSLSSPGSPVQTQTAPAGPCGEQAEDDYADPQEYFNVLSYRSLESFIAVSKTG
In words: flow cytometry, 100 nM Ab, Jurkat-mTIGIT vs untransfected. The procedure: as §2

For assay [5], the target named is T3, Human TIGIT-His. In words: MSD-SET, monovalent (Fab or mAb titrated, not said which). The procedure:
as §1
The source holds these as a separate data set.

In assay [6] the target is T1, human TIGIT expressed on cells. As to the kind of experiment: flow cytometry, competition with CD155-His (5 ug/ml) on Jurkat-hTIGIT.
The target is the same in assay [7]. In words: cell-based or functional assay. This is another data set of the same source.
The target is the same in assay [8]. As to the kind of experiment: cell-based or functional assay. This is another data set of the same source.
For assay [9] the target is unchanged. As to the kind of experiment: flow cytometry on Jurkat-hTIGIT. On the procedure: Antibodies were incubated with the cells for 20 min at 4° C. in FACS buffer. […] Fluorescence intensity was analysed using LSR BD Fortessa and cell binding was recorded as the median fluorescence intensity of PE in cells expressing TIGIT at their surface.
The half-maximal concentration of binding (EC50) to Jurkat-hTIGIT was calculated using a four-variable curve-fit equation in Prism.

Assay [10] has the same target. As to the kind of experiment: flow cytometry, primary CD8+ T cells of healthy human PBMC, MFI. The procedure:
Isolated human PBMCs from healthy volunteers were analysed for binding by antagonist anti-TIGIT antibodies. Cells were distributed at 1×10⁵ cells per well. Cells were incubated with anti-CD16 (Clone 3G8, BioLegend 302002), CD32 (Clone FLI8.26, BD Bioscience 557333) and CD64 (BD Bioscience 555525) at room temperature for 10 min, and the indicated anti-human TIGIT antibody clones were directly added at a final concentration of 8; 4; 2; 1; 0.5; 0.25; 0.125; 0.062; 0.031; 0.016; 8×10⁻³ and 4×10⁻³ nM in FACS buffer and incubated for 20 min at 4° C. […] Then, cells were washed and incubated with the following antibodies and LVD mix: anti-CD4-PercP-Cy5.5 (clone A161A1, BioLegend 357414); anti-CD8-BV510 (clone SK1, BD Bioscience 563919) and LVD efluor 660 (eBioscience 65-0864-18).
The EC50 values for binding to CD8+ human primary T cells were calculated using the MFI signal on living TIGIT+CD8+ T cells.

Assay [11] shares this target. In words: flow cytometry, primary CD8+ T cells of cancer patients' PBMC, MFI. The procedure: Cells were distributed at 1×10^5 cells per well. […] Then, cells were washed and incubated with the following antibodies and life viability dye (LVD) mix: anti-CD4-PercP-Cy5.5 (clone A161A1, BioLegend 357414); anti-CD8-BV510 (clone SK1, BD Bioscience 563919) and LVD efluor 520 (eBioscience 65-0867-14). Cells were washed and fixed and surface staining was quantified using BD LSR Fortessa. Flow cytometry data was analysed using FlowJo V10.1. TIGIT MFI on gated LVD-TIGIT+CD8+ cells was used to calculate EC50 values.

Assay [12] shares this target. In words: flow cytometry, competition with CD155-His (15 ug/ml) on Jurkat-hTIGIT.
The target in assay [13] is T5, recombinant human TIGIT protein (construct not stated) (human, UniProt Q495A1 22-141, limits assumed).
T5 construct: also called hTIGIT (Creative Biomart); recombinant TIGIT protein
T5 sequence (looked up): T2 sequence (looked up)
In words: Biacore T200, IgG captured by anti-human Fc, antigen in solution, 1:1 kinetic model. On the procedure:
Biosensor analysis was conducted at 25° C. in a HBS-EP buffer system (10 mM HEPES pH 7.3, 150 mM NaCl, 3 mM EDTA, 0.05% Tween20) using Biacore T200 technology, CMS sensor chip (run at Novalix, France). The sample hotel was maintained at 8° C. Goat anti-human IgG capture antibody (Fcγ fragment specific, Jackson ImmunoResearch Laboratories) was immobilized (10000 RU) to both flow cells of the sensor chip using standard amine coupling chemistry. This surface type provided a format for reproducibly capturing fresh analysis antibody after each regeneration step. Flow cell 2 was used to analyse captured antibody while flow cell 1 was used as a reference flow cell. […] Two blank (buffer) injections also were run and used to assess and subtract system artefacts. The association (300 s) and dissociation (600 s) phases for all antigen concentrations were performed at a flow rate of 30 uL/min. The surface was regenerated with three sequential injections (15 s, 15 s and 60 s) of 10 mM glycine-HCl, pH 1.5. The obtained sensorgrams were fitted globally to a 1:1 model (assuming the same kinetic values for all applied concentrations).

Read-outs that look alike come from different tables or passages of the source.

B1: anti-TIGIT antibody clone 29523 (IgG) (antibody, V domains shown)
VH: EVQLVESGGGVVQPGRSLRLSCAASGFTFGSYYMHWVRQAPGKGLEWVAVIWPDGSNKLYADSVKGRFTISRDNSKNTLYLQMNSLRAEDTALYYCAKPVPKSRALDVWGQGTMVTVSS
VL: DIQLTQSPSSVSASVGDRVTITCRASQGISSWLAWYQQKPGKAPKLLIYGASSLQSGVPSRFSGSGSGTDFTLTISSLQPEDFATYYCQQAFYLPWTFGGGTKVEIK
Take B1: the “Induction over Isotype control (fold change), luciferase, Jurkat-hTIGIT + CHO-TCR-CD155, 133 nM” value in assay [1] came to 2.4 fold. Further, the Kd in the assay with Human TIGIT-Fc was found to be 0.531 nM; with Human TIGIT-His [2] it was 1.7 nM; with Human TIGIT-His [5], 1.7 nM. In addition, the results for the “FON (Fold Over Negative)” value in [3] and in [4] were 150 fold and 502 fold, respectively. The IC50 in assay [6] stood at 0.079 nM.

B2: 22G2 (comparative anti-TIGIT antibody, human IgG1) (antibody, V domains shown)
VH: QVHLQESGPGLVKPSETLSLTCTVSGGSVSSGIYYWSWIRQPPGKGLEWIGYIYYSGSTNYNPSLKSRVTISVDTSKNQFSLKLSSVTAADTAVYYCARDYYVSGNYYNVDYYFFGVDVWGQGTTVTVSS
VL: EIVLTQSPATLSLSPGERATLSCRASQSVSSYLAWYQQKPGQAPRLLIYDASNRATGIPARFSGSGSGTDFTLTISSLEPEDFAVYYCQQRSNWPPLFTFGPGTKVDIK
notes: from WO2016/106302; made in HEK cells as human IgG1
B2: in [7], the “EC50 (nM), luciferase, Jurkat-hTIGIT” value was 5.2 nM; the “Fold change of EC50 over EC50 of best clone (31282_up)” value came out at 1.6 fold; the “Induction over Isotype control (fold change), luciferase, Jurkat-hTIGIT + CD155 aAPC/CHO-K1” value is 5.3 fold. In assay [8], the “EC50 (nM), IFNg, human primary CD8+ T cells” value was found to be 0.41 nM; the “Fold change of EC50 over EC50 of best clone (31282_wu)” value (“Fold change of EC50 … (31282_wu)” below) turned out to be 3.1 fold; the “Induction over isotype control (fold change), IFNg, human primary CD8+ T cells + CD155 aAPC/CHO-K1” value worked out at 1.5 fold. Besides, in [9], the response was half-maximal at 0.32 nM (EC50) and the “Fold change of EC50 … (31282_wu)” value is 3 fold. For the same molecule, in assay [10], the EC50 amounted to 1.17 nM and the “Fold change of EC50 … (31282_wu)” value stood at 6.1 fold. For the same molecule, in assay [11], the concentration giving a half-maximal response (EC50) worked out at 0.37 nM and the “Fold change of EC50 over EC50 of best clone (31282)” value worked out at 3.1 fold. Further, in [12], the “Fold change of IC50 over IC50 of best clone (31282_up)” value was 2.2 fold and the IC50 came out at 0.09 nM. Besides, in assay [13], the Kd was found to be 0.071 nM and the koff was determined as 0.000178 s⁻¹.

B3: 31C6 (MEB125.31C6.A1.205 VH4/VL1; comparative anti-TIGIT antibody, human IgG1) (antibody, V domains shown)
VH: EVQLVQSGAEVKKPGASVKVSCKASGYTFSSYVMHWVRQAPGQGLEWIGYIDPYNDGAKYAQKFQGRVTLTSDKSTSTVYMELSSLRSEDTAVYYCARGGPYGWYFDVWGQGTTVTVSS
VL: DIQMTQSPSSLSASVGDRVTITCRASEHIYSYLSWYQQKPGKAPKLLIYNAKTLAEGVPSRFSGSGSGTDFTLTISSLQPEDFATYYCQHHFGSPLTFGQGTRLEIK
notes: from WO2016/028656; made in HEK cells as human IgG1; also called 3106 (as the text prints it)
As to B3, in [7], the “EC50 (nM), luciferase, Jurkat-hTIGIT” value was 5.3 nM; the “Fold change of EC50 over EC50 of best clone (31282_up)” value was 1.6 fold; the “Induction over Isotype control (fold change), luciferase, Jurkat-hTIGIT + CD155 aAPC/CHO-K1” value came to 6.7 fold. Moreover, in assay [8], the “EC50 (nM), IFNg, human primary CD8+ T cells” value amounted to 0.3 nM; the “Fold change of EC50 … (31282_wu)” value is 2.3 fold; the “Induction over isotype control (fold change), IFNg, human primary CD8+ T cells + CD155 aAPC/CHO-K1” value turned out to be 1.6 fold. In assay [9], the EC50 was determined as 0.13 nM and the “Fold change of EC50 … (31282_wu)” value amounted to 1.2 fold. In addition, in assay [10], the concentration giving a half-maximal response (EC50) is 0.39 nM and the “Fold change of EC50 … (31282_wu)” value amounted to 2 fold. In addition, in [11], the EC50 is 0.18 nM and the “Fold change of EC50 over EC50 of best clone (31282)” value came out at 1.5 fold. In addition, in assay [12], the “Fold change of IC50 over IC50 of best clone (31282_up)” value was 1.7 fold and the IC50 is 0.07 nM. In addition, in assay [13], the Kd worked out at 0.067 nM and the koff came out at 0.000209 s⁻¹.
